Among the data in publication PMC10925157 are stoichiometry N values, retold here.

This test deals with Acinetobacter baumannii rhodanese-like domain protein (Ab-RLD) (Acinetobacter baumannii). In words: SEC.

For orientation: stoichiometry N means the number of molecules, sites or subunits per partner or assembly. With “Acinetobacter baumannii rhodanese-like domain protein (Ab-RLD) (enzyme)”, the stoichiometry N is 2.
